Assay: yeast display, Sf9 membrane polyspecificity reagent, FACS + sequencing; frameworks hold sequencing errors
In short: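 Synthetic nanobody libraries on Saccharomyces cerevisiae BJ5465 were galactose-induced for 36–48 hours, stained 1 hour at 4 °C with 10% biotinylated, detergent-solubilized Sf9 membrane reagent and enriched on streptavidin microbeads. FACS then separated cells into low and high (top ~1%) gates by anti-HA (expression) and streptavidin (reagent binding) fluorescence. Genes were colony-PCR amplified, MiSeq 2 × 250 sequenced and CDR-length filtered. A clone's polyreactivity label is that of its gate of origin.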

Sequence | polyreactivity (PSR sort gate)
QVQLVESGGGLVQAGGSLRLSCAASGITFDIYAMGWYRQAPGKVRELVAAISGSDGSTYYADSVKGRFTISRDNAKNTVYLQMNSLKPEDTAVYYGAAESEYAGTYESDYWGLGTQVTVSS | low polyreactivity
QVQLVESGGGLVQAGGSLRLSCAASGITFDTYAMGWYRQAPGKERELVAAISKSGGSPYYADSVKARFTISRDNAKNTVYLQMNSLKPEDTAVNYCNARYRHSGRYWDWYYYWGQGTQVTVSS | high polyreactivity
QVQLVESGGGLVQAGGSLRLSCAASGITFDVNAMGWYRQAPGKERELVAAITAGGNTYYADSVKGRFTISRDNAKNTVYLQMNSLKPEDTAVYYCAAVSTSLYWAGYDYWGQGTQVTVSS | low polyreactivity
QVQLVESGGGLVQAGGSLRLSCAASGITFDYYAMGWYRQAPGKERELVAAIRSGGSTNYADSVKGRFTISRDNAKNTVYLQMNSLKPVDTAVYYCAAVRYYPWYDYWGQGTQVTVSS | high polyreactivity
QVQLVESGGGLVQAGGSLRLSCAASGITFDYYAMGWYRQAPGKERELVAAISGGDSTNYADSVKGRFTISRDNEKNTVYLQMNSLKPEDTAVYYCNVQYSGLYWSYRIDFDYWGQGTQVTVSS | high polyreactivity
QVQLVESGGGLVQAGGSLRLSCAASGITFDYYGMGWYRQAPGKEGELVASITSGGSTNYADSVNGRFTISRDNAKNTVYLQMNSLKPEDTAVYYCNAEFWEVSPDRRDYDYWGQGTQVTVSS | low polyreactivity
QVQLVESGGGLVQAGGSLRLSCAASGITFEDYAMGWYRQAPGKERELVAAITSNGGSTYYADSVKGRFTISRDNAKNTVYLQMNSLKPEDTAVYYCAATKYFSYYGRVSWADGGYWGQGTQVTVSS | low polyreactivity
QVQLVESGGGLVQAGGSLRLSCAASGITFEGYSMGWYRQAPGKERELVAAIRSSGTSTYYADSVKGRFTISRDNAKNTVYLQMNSLKPEDTAVYYCNRARSSSRYDYWGQGTQVTVSS | low polyreactivity
QVQLVESGGGLVQAGGSLRLSCAASGITFEPYAMGWDREAPGKEREFVSDNTWSGGSTYYADSVKSRFTISRDNANNTVYLQMNSLKPEDTAVYYCAADGWTSYWSDYWGQGTQVTVSS | low polyreactivity
QVQLVESGGGLVQAGGSLRLSCAASGITFERNAMGWYRQAPGKERELVAAITGRGTSTYADSVKGRFTISRDNAKNTVYLQMNSLKPEDTAVYYCAAVGWFADFLFSDINGYYWGQGTQVTVSS | low polyreactivity
QVQLVESGGGLVQAGGSLRLSCAASGITFERYVMGWYIQAPGKERELVASISRSGSTFYADSVKGRFTISRDNAKNTVYLQMNSLKPEDTAVYYCNADRFWFHWVYSRYHYDYWGQGTQVTVSS | high polyreactivity
QVQLVESGGGLVQAGGSLRLSCAASGITFEVNAMGWYRQAPGKERELVARISRDGSTNYADSVKGRFTISRDNAKNTVYLQRNSLKPEDTAVYYCNAKLYRSFDYWGQGTQVTVSS | low polyreactivity
QVQLVESGGGLVQAGGSLRLSCAASGITFEYYAMGWYRQAPGKERELVAAIDTGGSTNYADSVKGRFTISRDNAKNTVYLQMNSLKPEDTAVYYCTADGPSTPWVDYGYWGQGTQVTVSS | low polyreactivity
QVQLVESGGGLVQAGGSLRLSCAASGITFEYYAMGWYRQAPGKERELVAAISWSGSSTYYADSVKGRFTISRDNAKNTVYLQMNSLKPEDTAVYYCNADSSWWASDDQYDYWGQGTQVTVSS | low polyreactivity
QVQLVESGGGLVQAGGSLRLSCAASGITFFDYAMGWSRQAPGKERELVAAIDLSDGRTYYADSVKGRFTISRDNAKNTFYLQMNSLKPEDTAVYYCAAVSTSLYWAGYDYWGQGTQVTVSS | low polyreactivity
QVQLVESGGGLVQAGGSLRLSCAASGITFFENAMGWYRQAPGKERELVAAISYSGGNTYADSVKGRFTISRDNAKNTVYLQMNSLKPEDTAVYYCNADYAGWGEYDYWGQGTQVTVSS | low polyreactivity

Sequence | polyreactivity (PSR sort gate)
QVQLVESGGGLVQAGGSLRLSCAASGITFFEYAMGWYRQAPGKERELVAVITSGGSTNYADSVKGRFTISRDNAKNTVYLQMNSLKPEDTAVYYCNARVVKYRWWYDYYYWGQGTQVTVSS | low polyreactivity
QVQLVESGGGLVQAGGSLRLSCAASGITFFIYAMGWYRQAPGKQRELFAAIRSGGSTNYADSVKGRFTISRDNAQNTVYLQMNSLKPEDTSVFYCAADVYGTVRRVGWYYVGEGYDYWGQGTQVTVSS | low polyreactivity
QVQLVESGGGLVQAGGSLRLSCAASGITFFVYAMGWYRQAPGKERELVAAITSGDSTSYADSVKGRFTISRDNAKNTVYLQMNSLKPEDTAVYYCAAEQVTIEDGVYFDFNSWGQGTQVTVSS | low polyreactivity
QVQLVESGGGLVQAGGSLRLSCAASGITFFVYDMGWYRQAPGKERELVAAITWSGDSTYYADSVKGRFTISRDNAKNTVYLQMNSLKPEDTAVYYCAAQFDVYYSRQPYDYNRSGYWGQGTQVTVSS | low polyreactivity
QVQLVESGGGLVQAGGSLRLSCAASGITFGAYTMGWYRQAPGKERELVAAISRTGARTYYADSVKGRFTISRDNAKNTVYLQMNSLKPEDTAVYYCAAYRIGQYDYWGQGTQVTVSS | high polyreactivity
QVQLVESGGGLVQAGGSLRLSCAASGITFGDYAMGWDRQAPGKERELVAAISTSGVRTYYADSVKGRFTISRDNAKNTVYLQMNSLKPEDTAVYYCNARDYSGFQTGASAAFDYWGQGTQVTVSS | low polyreactivity
QVQLVESGGGLVQAGGSLRLSCAASGITFGGNAMGWYRQAPGKERELVAAISSSGGSTYYADSVKGRFTISRDNAKNTVYLQMNSLKPEDTAVYYCAARNRYPLRFYYWGQGTQVTVSS | high polyreactivity
QVQLVESGGGLVQAGGSLRLSCAASGITFGGYAMGWYRQAPGKERELVASIRSGSSTNYADSVKGRFTISRDNAKNTVYLQMNSLKPEDTAVYYCAARNFRNRYGYWGQGTQVTVSS | high polyreactivity
QVQLVESGGGLVQAGGSLRLSCAASGITFGPYAMGWYRQAPGKERELVAAITWGGGSTYYADSVKGRFTISRDNAKNTVYLQMNSLKPEDTAVYYCNAEGSTTSRYLPYDYWGQGTQVTVSS | low polyreactivity
QVQLVESGGGLVQAGGSLRLSCAASGITFGRNTMGWYRQAPGKERELVAAIRSGGSTNYADSVKGRFSISRDNAKNTVYLLMNSLKPEDPAVYYWNAQPWVRFWPYDYWGQGTQVTVSS | low polyreactivity
QVQLVESGGGLVQAGGSLRLSCAASGITFGSNAMGWYRQAPGKERELVAAINSGGTTTYADSVKGRFTISRDNAKNTVYLQMNSLKPEDTAVYYCAVSGGASYQFVGSPDTEHDYWGQGTQVTVSS | low polyreactivity
QVQLVESGGGLVQAGGSLRLSCAASGITFGTNAMGWYRQAPGKERELVAAISGGGGSTYYADSVKGRFTISRDNAKYTVYLQMTCLKPEDTAFYYCAARRFKRSSLSFYVGYYYWGQGTQVTVSS | high polyreactivity
QVQLVESGGGLVQAGGSLRLSCAASGITFGTYAMGWYRQAPGKERELDAAIDTSGDDTYYADSVKGRFTISRDNAKNTVYLQMNSLKPEDTAVYYCAADFPSAEVDYWGQGTQVTVSS | low polyreactivity
QVQLVESGGGLVQAGGSLRLSCAASGITFGVYALGWSRQARGNERELVAAISVNGGSTYYADSVKGRYTISRDNAKNTVYLQMNSLKPEDTAVYYCAADVLYYIDDDSIIEYDYWGQGTQVTVSS | low polyreactivity
QVQLVESGGGLVQAGGSLRLSCAASGITFGVYAMGWYRQAPGKERELVAAISWSVGSTYYADSVKGRFTISRDNAKNTVYLQMNSLKPEDTAVYYCAAYYGVGFDYWGQGTQVTVSS | high polyreactivity

From the nanobody polyreactivity screen of Harvey et al. (2022)
